We go through 1 substance from publication PMC2694229.

For this data set, the system named is PCBP2. Briefly: competition EMSA. Background: In EMSA bound probe runs differently from free probe, usually more slowly.

One may read the Kd as the free concentration of one partner at which half of the binding sites on the other are occupied at equilibrium, for simple one-to-one binding. Read a high Kd as a looser complex. For the substance poliovirus stem-loop IV RNA, the Kd came to 15 nM.
